11 molecules from publication PMC6379965, “Expression and activity of the calcitonin receptor family in a sample of primary human high-grade gliomas” (BMC Cancer, 2019) can be followed below.

The test system of assay [1] is WK1 cell line. The assay can be described thus: Ca2+ mobilization, WK1. The assay is classed as cell-based, human. As to conditions: Fluo4-AM, FlexStation, 37 °C, pH 7.4, peak RFU, ATP 10 μM, ionomycin 1 μM, representative experiment, 3 replicates.
Protocol: (§3) Primary patient high-grade glioma (HGG) cell lines, in vitro surrogates of glioblastoma, were developed by QIMR-Berghofer Medical Research Institute (Brisbane, Australia) and represent 3 distinct GBM subtypes: SB2b and PB1 (classical), JK2 (proneural) and WK1(mesenchymal) [37], who supplied these directly for this study. GBM cell lines were cultured as adherent monolayers on matrigel (BD Biosciences)-coated flasks using StemPro NSC SFM serum free cell culture medium (Thermo Fisher Scientific) supplemented with 20 ng/ml EGF and 20 ng/ml FGFb, 1% D-glutamine and 1% of penicillin/ streptomycin (further referred as StemPro complete medium).
(§4) GBM cell lines were seeded at 38000 cells/well (SB2b) or 35,000 cells/well (PB1 and WK1) in 96-well matrigel-coated plates and incubated for 24 h at 37 °C, 5% CO2 in humidified incubator in StemPro complete medium. […] Cells were incubated at 37°C for 60 min before ligand addition and detection of Ca^2+ mobilisation in a FlexStation 3 (Molecular Devices).
Assay [2] has as its system PB1 cell line. The assay can be described thus: Ca2+ mobilization, PB1. The assay is classed as cell-based, human. The note with it: Fluo4-AM, FlexStation, 37 °C, pH 7.4, peak RFU, ATP 10 μM, ionomycin 1 μM, representative experiment, 3 replicates.
Protocol: as §3, §4
A further assay has as its system SB2b cell line. The assay can be described thus: Ca2+ mobilization, SB2b. The assay is classed as cell-based, human. As to conditions: Fluo4-AM, FlexStation, 37 °C, pH 7.4, peak RFU, ATP 10 μM, ionomycin 1 μM, representative experiment, 3 replicates.
Assay [3] concerns WK1 cell line. As to the kind of experiment: cAMP accumulation, CTR agonists, WK1. The assay is classed as cell-based, human. The note with it: 1 μM forskolin. On the procedure:
(§1) Primary patient high-grade glioma (HGG) cell lines, in vitro surrogates of glioblastoma, were developed by QIMR-Berghofer Medical Research Institute (Brisbane, Australia) and represent 3 distinct GBM subtypes: SB2b and PB1 (classical), JK2 (proneural) and WK1(mesenchymal), who supplied these directly for this study. GBM cell lines were cultured as adherent monolayers on matrigel (BD Biosciences)-coated flasks using StemPro NSC SFM serum free cell culture medium (Thermo Fisher Scientific) supplemented with 20 ng/ml EGF and 20 ng/ml FGFb, 1% D-glutamine and 1% of penicillin/ streptomycin (further referred as StemPro complete medium). Cells were cultured in 5% CO2 / 95% humidified air at 37 °C.
GBM cell lines were seeded at 38000 cells/well (SB2b) or 35,000 cells/well (PB1, JK2 and WK1) in 96-well matrigel-coated plates and incubated for 24 h at 37°C, 5% CO2 in humidified incubator in StemPro complete medium. Media was replaced with stimulation buffer (phenol red free F12 media, 0.1% BSA, 0.5 mM IBMX, pH 7.4). […] Intracellular cAMP levels in the wells were determined using Lance Ultra cAMP assay kit (Perkin Elmer) according to the manufacturer’s instructions and detected using an Envision multilabel 2103 reader. […] Data were analysed by three-parameter logistic curve and are presented as percentage of 10^− 5 M forskolin response.

A further assay has as its target T1, CTR in SB2b cell line (Homo sapiens, UniProt P30988).
T1 construct: only one of the studied cell lines expressed functional CTR; endogenous in cells; host or cells: SB2b patient-derived high-grade glioma cell line
T1 sequence (P30988 25-474): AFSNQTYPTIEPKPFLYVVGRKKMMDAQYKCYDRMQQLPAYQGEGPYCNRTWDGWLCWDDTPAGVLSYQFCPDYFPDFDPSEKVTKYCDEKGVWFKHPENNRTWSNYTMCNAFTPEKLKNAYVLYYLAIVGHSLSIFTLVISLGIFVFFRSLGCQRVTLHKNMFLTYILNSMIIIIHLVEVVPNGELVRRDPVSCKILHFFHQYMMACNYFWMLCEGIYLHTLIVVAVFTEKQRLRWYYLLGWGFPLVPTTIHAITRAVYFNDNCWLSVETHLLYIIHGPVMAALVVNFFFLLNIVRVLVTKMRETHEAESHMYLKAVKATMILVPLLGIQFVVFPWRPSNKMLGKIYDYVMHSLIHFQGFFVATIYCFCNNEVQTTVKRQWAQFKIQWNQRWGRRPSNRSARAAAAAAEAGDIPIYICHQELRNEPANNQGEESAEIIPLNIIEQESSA
As to the kind of experiment: cAMP accumulation, CTR agonists, SB2b. As to conditions: read-out: Emax, cAMP accumulation. The assay is classed as cell-based. On the procedure: as §1, with “medium).” for “medium). Cells were cultured in 5% CO2 / 95% humidified air at 37 °C.”
GBM cell lines were seeded at 38000 cells/well (SB2b) or 35,000 cells/well (PB1, JK2 and WK1) in 96-well matrigel-coated plates and incubated for 24 h at 37°C, 5% CO2 in humidified incubator in StemPro complete medium. Media was replaced with stimulation buffer (phenol red free F12 media, 0.1% BSA, 0.5 mM IBMX, pH 7.4). […] Cells were lysed (0.3% Tween 20, 5 mM Hepes, 0.1% BSA, pH 7.4) and 5 μl of cell lysate from each well was transferred to a corresponding well of 384-well optiplate. […] Data were analysed by three-parameter logistic curve and are presented as percentage of 10^− 5 M forskolin response.

The target of assay [4] is calcitonin receptor (human (endogenous in SB2b)) (UniProt P30988).
The target of assay [5] is CGRP (CLR/RAMP1) receptor (human (endogenous in PB1, JK2 and WK1)) (UniProt Q16602).
CGRP (CLR/RAMP1) receptor (human (endogenous in PB1, JK2 and WK1)), sequence (Q16602 23-461, chain 1 of 2): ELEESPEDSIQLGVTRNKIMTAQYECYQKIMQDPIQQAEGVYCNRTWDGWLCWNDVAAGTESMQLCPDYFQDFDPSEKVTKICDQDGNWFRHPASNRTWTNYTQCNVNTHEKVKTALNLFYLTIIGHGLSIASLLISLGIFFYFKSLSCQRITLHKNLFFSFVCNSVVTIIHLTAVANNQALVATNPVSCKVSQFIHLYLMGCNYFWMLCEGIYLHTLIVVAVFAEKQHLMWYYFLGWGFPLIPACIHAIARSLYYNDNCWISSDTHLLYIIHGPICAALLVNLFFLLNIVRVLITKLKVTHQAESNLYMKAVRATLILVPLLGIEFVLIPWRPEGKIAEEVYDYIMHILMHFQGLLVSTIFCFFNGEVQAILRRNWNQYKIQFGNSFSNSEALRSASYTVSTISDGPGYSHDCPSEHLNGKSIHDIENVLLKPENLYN
CGRP (CLR/RAMP1) receptor (human (endogenous in PB1, JK2 and WK1)), sequence (O60894 27-148, chain 2 of 2, further chain): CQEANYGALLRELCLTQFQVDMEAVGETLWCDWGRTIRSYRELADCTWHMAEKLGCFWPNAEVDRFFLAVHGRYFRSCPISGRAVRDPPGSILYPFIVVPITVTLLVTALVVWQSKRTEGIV
Assay [6] deals with PB1 cell line. The assay can be described thus: cAMP accumulation, CTR agonists, PB1. The note with it: 1 μM antagonist. The assay is classed as cell-based, human. On the procedure: as §1
(§2) GBM cell lines were seeded at 38000 cells/well (SB2b) or 35,000 cells/well (PB1, JK2 and WK1) in 96-well matrigel-coated plates and incubated for 24 h at 37°C, 5% CO2 in humidified incubator in StemPro complete medium. Media was replaced with stimulation buffer (phenol red free F12 media, 0.1% BSA, 0.5 mM IBMX, pH 7.4). […] Cells were lysed (0.3% Tween 20, 5 mM Hepes, 0.1% BSA, pH 7.4) and 5 μl of cell lysate from each well was transferred to a corresponding well of 384-well optiplate. Intracellular cAMP levels in the wells were determined using Lance Ultra cAMP assay kit (Perkin Elmer) according to the manufacturer’s instructions and detected using an Envision multilabel 2103 reader. Raw RFU values were converted using a cAMP standard curve to give absolute cAMP concentrations. Data were analysed by three-parameter logistic curve and are presented as percentage of 10^− 5 M forskolin response.

Another assay relates to JK2 cell line. As to the kind of experiment: cAMP accumulation, CTR agonists, JK2. The assay is classed as cell-based, human. The note with it: 1 μM antagonist. On the procedure:
as §1, §2

The target in assay [7] is CGRP (CLR/RAMP1) receptor (human (endogenous in PB1, JK2 and WK1)) (UniProt Q16602). The source holds these as a separate data set.

Where two headings read alike, the source gives them in different places. Ends that are not written are not given here.

For `Nc1ncnc2c1ncn2[C@@H]1O[C@H](COP(=O)(O)OP(=O)(O)OP(=O)(O)O)[C@@H](O)[C@H]1O` [ATP], the “intracellular Ca2+ mobilisation response” value with WK1 cell line [1], in the assay on PB1 cell line [2] and with SB2b cell line was “robust response” each time.

With `C=C[C@@]1(C)CC(=O)[C@]2(O)[C@@]3(C)[C@@H](O)CCC(C)(C)[C@@H]3[C@H](O)[C@H](OC(C)=O)[C@@]2(C)O1` [forskolin], in the assay on WK1 cell line [3], the “increase of basal cAMP” value came out at 4 fold.

As for `CC[C@H](C)[C@H](NC(=O)[C@H](C)NC(=O)[C@@H](NC(=O)[C@H](CCC(N)=O)NC(=O)[C@@H]1CCCN1C(=O)[C@H](Cc1ccccc1)NC(=O)[C@@H](NC(=O)[C@H](Cc1c[nH]cn1)NC(=O)[C@H](Cc1ccccc1)NC(=O)[C@H](CCCCN)NC(=O)[C@H](CC(N)=O)NC(=O)[C@H](Cc1ccccc1)NC(=O)[C@H](CC(=O)O)NC(=O)[C@H](CCC(N)=O)NC(=O)[C@@H](NC(=O)[C@H](Cc1ccc(O)cc1)NC(=O)[C@@H](NC(=O)CNC(=O)[C@H](CC(C)C)NC(=O)[C@H](CCSC)NC(=O)[C@@H]1CSSC[C@H](N)C(=O)NCC(=O)N[C@@H](CC(N)=O)C(=O)N[C@@H](CC(C)C)C(=O)N[C@@H](CO)C(=O)N[C@@H]([C@@H](C)O)C(=O)N1)[C@@H](C)O)[C@@H](C)O)[C@@H](C)O)[C@@H](C)O)C(=O)NCC(=O)N[C@H](C(=O)NCC(=O)N[C@@H](C)C(=O)N1CCC[C@H]1C(N)=O)C(C)C` [hCT, Human CT], the Emax at CTR in SB2b cell line was determined as 43%.

Turning to `C[C@H](CCC(=O)O)C[C@H](C)C[C@H](C)C(=O)/C=C(\O)[C@H](C)C[C@H](C)C/C=C/[C@@H](C)[C@@H](O)[C@@H](C)[C@@H](O)C[C@@H]1CC[C@@](C)([C@H]2CC[C@@](C)([C@@H](C)O)O2)O1` [ionomycin], the “intracellular Ca2+ mobilisation response” value in the assay on WK1 cell line [1], with PB1 cell line [2] and with SB2b cell line was “robust response” each time.

`CC(C)C[C@H](NC(=O)[C@H](CCCCN)NC(=O)CNC(=O)[C@H](CC(C)C)NC(=O)[C@@H](NC(=O)[C@@H]1CSSC[C@H](N)C(=O)N[C@@H](CO)C(=O)N[C@@H](CC(N)=O)C(=O)N[C@@H](CC(C)C)C(=O)N[C@@H](CO)C(=O)N[C@@H]([C@@H](C)O)C(=O)N1)C(C)C)C(=O)N[C@@H](CO)C(=O)N[C@@H](CCC(N)=O)C(=O)N[C@@H](CCC(=O)O)C(=O)N[C@@H](CC(C)C)C(=O)N[C@@H](Cc1c[nH]cn1)C(=O)N[C@@H](CCCCN)C(=O)N[C@@H](CC(C)C)C(=O)N[C@@H](CCC(N)=O)C(=O)N[C@H](C(=O)N[C@@H](Cc1ccc(O)cc1)C(=O)N1CCC[C@H]1C(=O)N[C@@H](CCCNC(=N)N)C(=O)N[C@H](C(=O)N[C@@H](CC(N)=O)C(=O)N[C@H](C(=O)NCC(=O)N[C@@H](CO)C(=O)NCC(=O)N[C@H](C(=O)N1CCC[C@H]1C(N)=O)[C@@H](C)O)[C@@H](C)O)[C@@H](C)O)[C@@H](C)O` [sCT, Salmon CT]: at CTR in SB2b cell line, the Emax turned out to be 35%.

For “human calcitonin (from UniProt P01258 85-116) (peptide)”, in assay [4], the Emax of cAMP accumulation in SB2b cells (% of forskolin) is 43.

For salmon calcitonin (peptide), in [4], the Emax of cAMP accumulation in SB2b cells (% of forskolin) turned out to be 35 and the pEC50 of cAMP accumulation (30 min) in SB2b cells came out at 9.4 pEC50.

With αCGRP(8–37) (peptide), the shift of the cAMP potency of αCGRP by 1 μM αCGRP(8–37) in PB1, JK2 and WK1 cells; blocks m4 + m8 in assay [5] worked out at 100 fold.

Take “αCGRP(8–37): CGRP receptor antagonist (VTHRLAGLLSRSGGVVKNNFVPTNVGSKAF; ends and bridges not checked; UniProt P06881 90-119, looked up, fragment)”: the “effect of antagonist on amylin cAMP response” value in the assay on PB1 cell line [6] and in the assay on JK2 cell line was “abolishing this response” each time.

B1: amylin (rAmy) (peptide)
peptide: KCNTATCATQRLANFLVRSSNNLGPVLPPTNVGSNTY
B1: the pEC50 of cAMP accumulation (30 min) in SB2b cells in assay [4] turned out to be 6.8 pEC50. In [7], this molecule registered a pEC50 of cAMP accumulation (30 min) in JK2 cells of 5.9 pEC50 and a pEC50 of cAMP accumulation (30 min) in PB1 cells of 6.1 pEC50.

B2: adrenomedullin (peptide)
peptide: YRQSMNNFQGLRSFGCRFGTCTVQKLAHQIYQFTDKDKDNVAPRSKISPQGY
Consider B2, for which, in [5], the pEC50 of cAMP accumulation (30 min) in JK2 cells worked out at 7 pEC50; the pEC50 of cAMP accumulation (30 min) in PB1 cells came out at 7.3 pEC50; the pEC50 of cAMP accumulation (30 min) in WK1 cells was 6.8 pEC50; the pEC50 of cAMP accumulation to AM alone, antagonist experiment, JK2 cells turned out to be 7.2 pEC50. Moreover, in [5], the pEC50 of cAMP accumulation to AM alone, antagonist experiment, PB1 cells was 7.2 pEC50; the pEC50 of cAMP accumulation to AM alone, antagonist experiment, WK1 cells came out at 6.9 pEC50; the pEC50 of cAMP accumulation to AM with 1 μM AM(22–52), JK2 cells stood at 7.3 pEC50; the pEC50 of cAMP accumulation to AM with 1 μM AM(22–52), PB1 cells was determined as 7.1 pEC50. The pEC50 of cAMP accumulation to AM with 1 μM AM(22–52), WK1 cells in assay [5] turned out to be 6.7 pEC50.
